Reference: article PMC4439124, “Hairy/Enhancer-of-Split MEGANE and Proneural MASH1 Factors Cooperate Synergistically in Midbrain GABAergic Neurogenesis” (PLoS ONE, 2015)

Biological target: T1, MGN (MEGANE), yeast two-hybrid fusion (mouse, UniProt Q7TS99 1-240)
T1 construct: The two Gal4 domains are alternatives: one fusion as bait (BD), another as prey (AD); also called Helt; BD-MGN; source: yeast two-hybrid fusion
T1 sequence (looked up): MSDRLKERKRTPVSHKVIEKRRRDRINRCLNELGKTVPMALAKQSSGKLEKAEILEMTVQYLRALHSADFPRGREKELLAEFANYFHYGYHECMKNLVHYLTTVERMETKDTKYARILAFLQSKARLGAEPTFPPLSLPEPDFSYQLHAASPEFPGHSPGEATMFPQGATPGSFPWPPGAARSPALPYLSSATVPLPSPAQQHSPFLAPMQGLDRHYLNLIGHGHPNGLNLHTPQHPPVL
Assay: two-hybrid; quantitative β-galactosidase assay on liquid cultures (X-gal; in parallel ONPG, absorbance at 420 nm), five independent transformants per pair, normalised against cell density and dilution
Conditions: partners not purified

fold β-galactosidase activity (strength of interaction) over the MASH1/MASH1 homodimer: 4 fold | fold β-galactosidase activity (strength of interaction) over the MGN/MGN homodimer: 4.4 fold
B1: MASH1, yeast two-hybrid fusion (natural protein, mouse, UniProt Q02067 1-231, looked up)
chain: MESSGKMESGAGQQPQPPQPFLPPAACFFATAAAAAAAAAAAAQSAQQQQPQAPPQQAPQLSPVADSQPSGGGHKSAAKQVKRQRSSSPELMRCKRRLNFSGFGYSLPQQQPAAVARRNERERNRVKLVNLGFATLREHVPNGAANKKMSKVETLRSAVEYIRALQQLLDEHDAVSAAFQAGVLSPTISPNYSNDLNSMAGSPVSSYSSDEGSYDPLSPEEQELLDFTNWF
notes: The two Gal4 domains are alternatives: one fusion as bait (BD), another as prey (AD); also called Ascl1; MASH1-AD; source: yeast two-hybrid fusion
